US20230235040A1 (ALMIRALL S A, published 2023)
Numbering of substitutions follows the chain as printed. Values belong to the binder of their own block, whether it stands above or below them.

Key:
[1] = target: T1, hu-IL-36β (human IL-36β, N-terminally truncated active form R5-E157) (human); assay: SPR (Biacore), purified Fab, biotinylated hu-IL-36β captured
T1 construct: Purification tag cleaved off; Biotinylated where captured; also called hu-IL-36b
T1 chain: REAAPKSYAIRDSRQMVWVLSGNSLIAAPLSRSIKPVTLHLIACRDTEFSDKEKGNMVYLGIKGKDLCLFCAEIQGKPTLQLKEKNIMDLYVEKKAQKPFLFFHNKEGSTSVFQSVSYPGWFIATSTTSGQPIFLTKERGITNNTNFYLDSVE

[2] = target: T1, hu-IL-36β (human IL-36β, N-terminally …); assay: phage competition ELISA: Fab on phage, soluble hu-IL-36β titrated against coated hu-IL-36β
Experimental: Selected phages with top binding signal were purified to perform phage competition ELISA. The optimal phage concentration was incubated with serially-diluted human IL-36β in ELISA buffer (0.5% BSA and 0.05% TWEEN©20 in PBS) in NUNC F plate for two hours. 80 μl of the mixture was transferred to human IL-36β coated wells for 15 min to capture unbound phage. The plate was washed with wash buffer (0.05% TWEEN©20 in PBS), and HRP-conjugated anti-M13 antibody (Sino biological, Cat #11973-MM05-H-50) was added in ELISA buffer for 30 min. The plate was incubated at room temperature for one hour with agitation, washed six times with wash buffer and developed for 15 minutes by addition of 100 μL/well of 1 Step Turbo™ B substrate (ThermoFisher, Cat #34022). The enzymatic reaction was stopped using 50 μL/well of 2N H₂SO₄. Plates were analyzed using a Perkin Elmer plate reader (Envision 2103 multilabel reader) at 450 nm. The absorbance at 450 nm was plotted as a function of antigen concentration in solution to determine phage IC₅₀. […] Real affinities for purified Fab molecules for the phage variants were also measured using Biacore (method described in detail in section E below).

[3] = target: T1, hu-IL-36β (human IL-36β, N-terminally …); assay: SPR (Biacore 8K), biotinylated hu-IL-36β captured on CAP chip, Fab injected, 37°C
Experimental: (§1) Briefly, a 1:4 dilution of Biotin CAPture Reagent (GE) into HBS-EP buffer (0.01 M HEPES pH 7.4, 0.15 M NaCl, 3 mM EDTA, 0.005% Surfactant P20) was applied to a CAP sensor chip at 2 uL/min flow rate. For kinetics measurements, 6 nM biotinylated human IL-36β was captured at 10 uL/min to achieve ˜50 response units in the second flow cell (FC2). FC1 was kept as a reference. […] The sensorgram was recorded and subject to reference and buffer subtraction before evaluating by BIACORE® 8K Evaluation Software (version 1.1.1.7442). Association rates (kₒₙ) and dissociation rates (koff) were calculated using a simple one-to-one Langmuir binding model.

[4] = target: T1, hu-IL-36β (human IL-36β, N-terminally …); assay: cell-based or functional assay
[5] = target: T2, hu-IL-36α (human IL-36α, N-terminally truncated active form K6-F158) (human, UniProt Q9UHA7 6-158); assay: phage competition ELISA: Fab on phage, soluble hu-IL-36α titrated against coated hu-IL-36α
T2 construct: Purification tag cleaved off; Biotinylated where captured (SPR, some ELISAs); also called hu-IL-36a
T2 sequence: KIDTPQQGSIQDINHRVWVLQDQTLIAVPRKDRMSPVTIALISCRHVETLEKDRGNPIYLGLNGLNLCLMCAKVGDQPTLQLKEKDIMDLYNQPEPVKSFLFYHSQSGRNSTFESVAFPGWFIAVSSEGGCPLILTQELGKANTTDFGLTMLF
Experimental: (§2) Selected phages with top binding signal were purified to perform phage competition ELISA. The optimal phage concentration was incubated with serially-diluted human IL-36α or human IL-36γ in ELISA buffer in NUNC F plate for two hours. 80 μL of the mixture was transferred to human IL-36α or human IL-36γ coated wells for 15 min to capture unbound phage. The plate was washed with wash buffer (0.05% TWEEN®20 in PBS), and HRP-conjugated anti-M13 antibody (Sino biological, Cat #11973-MM05-H-50) was added in ELISA buffer for 30 min. The plates were washed and developed as described above. The absorbance at 450 nm was plotted as a function of antigen concentration in solution to determine phage IC50.

[6] = target: T3, hu-IL-36γ (human IL-36γ, N-terminally truncated active form S18-D169) (human, UniProt Q9NZH8 18-169); assay: SPR (Biacore 8K), biotinylated hu-IL-36 captured on CAP chip, Fab injected, 37°C
T3 construct: Purification tag cleaved off; Biotinylated where captured; also called hu-IL-36g
T3 sequence: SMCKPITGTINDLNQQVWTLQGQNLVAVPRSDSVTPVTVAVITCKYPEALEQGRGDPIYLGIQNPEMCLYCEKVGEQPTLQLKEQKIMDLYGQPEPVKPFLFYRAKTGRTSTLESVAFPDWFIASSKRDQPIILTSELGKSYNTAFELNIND
Experimental: as §1, with “3” for “6”, “IL-36α and human IL-36γ” for “IL-36β”

[7] = target: T2, hu-IL-36α (human IL-36α, N-terminally …); assay: as above
Experimental: as §1, with “3” for “6”, “IL-36α and human IL-36γ” for “IL-36β”

[8] = target: T3, hu-IL-36γ (human IL-36γ, N-terminally …); assay: phage competition ELISA: Fab on phage, soluble hu-IL-36γ titrated against coated hu-IL-36γ
Experimental: as §2

[9] = target: T3, hu-IL-36γ (human IL-36γ, N-terminally …); assay: cell-based or functional assay
[10] = target: T2, hu-IL-36α (human IL-36α, N-terminally …); assay: cell-based or functional assay
[11] = target: T1, hu-IL-36β (human IL-36β, N-terminally …); assay: cell-based or functional assay
[12] = target: T1, hu-IL-36β (human IL-36β, N-terminally …); assay: ELISA, yeast Fab supernatant, anti-Fab-HRP
[13] = target: T1, hu-IL-36β (human IL-36β, N-terminally …); assay: cell-based or functional assay

B1: mAb6_2 Fab (Fab, V domains shown)
VH: ELQLQESGPGLVKPSETLSLTCTVSGGSITSSNYYWGWIRQPPGKGLEWIGSIDYTGSTYYNPSLKSRVTISVDTSKNQFSLKLSSVTAADTAVYYCARGKYYETYLGFDVWGQGTLVTVSS
VL: ESVLTQPPSVSGAPGQRVTISCTGSSSNIGAHYDVHWYQQLPGTAPKLLIYGNDNRPSGVPDRFSGSKSGTSASLAITGLQAEDEADYYCQSYDYSLSGYVFGGGTKLTVL
- apparent Kd (pooled screen) [1]: 40.1 nM
- apparent IC50 (pooled screen) [2]: 8.57 nM
- apparent Kd (pooled screen) [3]: 14.7 nM
- apparent koff (pooled screen) [3]: 0.00128 s⁻¹
- apparent kon (pooled screen) [3]: 87200 M⁻¹ s⁻¹
- IC50, IL-36-stimulated IL-8 secretion by HaCat cells [4]: 3.19 nM

B2: mAb2 Fab (Fab, V domains shown)
VH: ELQLQESGPGLVKPSETLSLTCTVSGGSISTSSYYWGWIRQPPGKGLEWIGSIYYTGNTYYNPSLKSRVTISVDTSKNQFSLKLSSVTAADTAVYYCARVRYGVGVPRYFDPWGQGTLVTVSS
VL: B1 VL
- apparent IC50 (pooled screen) [5]: 1.2 nM
- apparent Kd (pooled screen) [6]: 0.41 nM
- apparent koff (pooled screen) [6]: 0.000574 s⁻¹
- apparent kon (pooled screen) [6]: 1.39e+06 M⁻¹ s⁻¹
- apparent Kd (pooled screen) [7]: 0.23 nM
- apparent koff (pooled screen) [7]: 0.000264 s⁻¹
- apparent kon (pooled screen) [7]: 1.16e+06 M⁻¹ s⁻¹
- apparent IC50 (pooled screen) [8]: 3.2 nM
- IC50, IL-36-stimulated IL-8 secretion by HaCat cells [9]: 0.96 nM
- IC50, IL-36-stimulated IL-8 secretion by HaCat cells [10]: 0.3 nM

B3: mAb2.10 Fab (Fab, V domains shown)
VH: B2 VH with T31D, N58E, N62A, Y109H
VL: B1 VL
notes: Recombinant Fab with 8xHis tag (Expi293F)
- Kd [6]: 0.13 nM
- koff [6]: 0.00018 s⁻¹
- kon [6]: 1.37e+06 M⁻¹ s⁻¹
- Kd [7]: 0.15 nM
- koff [7]: 0.000222 s⁻¹
- kon [7]: 1.49e+06 M⁻¹ s⁻¹
- IC50, IL-36-stimulated IL-8 secretion by HaCat cells [9]: 1.09 nM
- IC50, IL-36-stimulated IL-8 secretion by HaCat cells [10]: 0.38 nM

B7: mAb2.11 Fab (Fab, V domains shown)
VH: B2 VH with T31E, N58E, N62A, V100L
VL: B1 VL
notes: as for B3
- Kd [6]: 0.11 nM
- koff [6]: 0.000214 s⁻¹
- kon [6]: 1.92e+06 M⁻¹ s⁻¹
- Kd [7]: 0.13 nM
- koff [7]: 0.000244 s⁻¹
- kon [7]: 1.91e+06 M⁻¹ s⁻¹
- IC50, IL-36-stimulated IL-8 secretion by HaCat cells [9]: 1.05 nM
- IC50, IL-36-stimulated IL-8 secretion by HaCat cells [10]: 0.42 nM

Next, values leading:

- Kd [1]: 2.55 nM
- IC50 [2]: 1.04 nM
- IC50, IL-36-stimulated IL-8 secretion by HaCat cells [4]: 2.22 nM
B4: mAb6_2.2 Fab (Fab, V domains shown)
VH: B1 VH with Y34A, Y60A, R99H
VL: B1 VL
notes: Purified Fab (Biacore, HaCat assay)

- Kd [1]: 1.62 nM
- IC50 [2]: 0.49 nM
- IC50, IL-36-stimulated IL-8 secretion by HaCat cells [4]: 1.31 nM
B5: mAb6_2.3 Fab (Fab, V domains shown)
VH: B1 VH with S31A, P63T, R99T
VL: B1 VL
notes: as for B4

- Kd [1]: 3.5 nM
- IC50 [2]: 0.77 nM
- IC50, IL-36-stimulated IL-8 secretion by HaCat cells [4]: 1.64 nM
B6: mAb6_2.1 Fab (Fab, V domains shown)
VH: B1 VH with S32T, S52N, P63A, R99T
VL: B1 VL
notes: as for B4

- IC50, HEK-Blue IL-36R SEAP reporter assay [11]: 1.4 nM
B8: mAb7.0 recombinant human IgG1 (antibody, V domains shown)
VH: QVQLVESGGGVVQPGRSLRLSCAASGFTFSSYGMHWVRQAPGKGLEWVAVISYGGSERYYADSVKGRFTISRDNSKNTLYLQMNSLRAEDTAVYYCAREPWYSSRGWTGYGFDVWGQGTLVTVSS
VL: EIVLTQSPGTLSLSPGERATLSCRASQSVSSNYLAWYQQKPGQAPKLLIYSASSLQSGVPSRFSGSGSGTDFTLTISSLQPEDFATYYCQQTYSYPPTFGQGTKVEIK

- ELISA OD450 [12]: 2.63 OD450
- % Inhibition, HEK-Blue IL-36R SEAP reporter assay [13]: 85%
B9: mAb8.0 Fab (yeast clone culture supernatant) (Fab, V domains shown)
VH: QVQLVQSGAEVKKPGSSVKVSCKASGGTFSNYAISWVRQAPGQGLEWMGGILPILGTVDYAQKFQGRVTITADESTSTAYMELSSLRSEDTAVYYCAREPWYRLGAFDVWGQGTLVTVSS
VL: DIQMTQSPSSLSASVGDRVTITCRASQTIYKYLNWYQQKPGKAPKLLIYAASSLQSGVPSRFSGSGSGTDFTLTISSLQPEDFATYYCQQYSSIPYTFGQGTKVEIK
notes: Human Fab secreted by the yeast clone, not purified

- IC50, HEK-Blue IL-36R SEAP reporter assay [11]: 0.34 nM
B10: mAb8.0 recombinant human IgG1 (antibody, V domains shown)
VH: B9 VH
VL: B9 VL
